{"source": "patent US20260207704A1", "about": "“STAPLED PEPTIDES AND METHODS THEREOF” (priority 2022, published 2026)", "binders": {"B1": {"name": "I-123 (peptide)", "peptide": "Ac-[αAllylPro]D[tBuAla][B5(4)]D[TfeGA]FAFK[PyrS2″][2F3MeF][Bta][GlnR]A-NH2", "modifications": "bridge 10-14; not fully specified (bridges); reading uncertain; also: Lys*3 and GlnR*3 marked *3"}, "B2": {"name": "I-128 (peptide)", "peptide": "Ac-[αAllylPro]D[tBuAla][B5(4)]D[TfeGA]AAFK[PyrS2″][2F3MeF][Bta][GlnR]L-NH2", "modifications": "bridge 10-14; not fully specified (bridges); reading uncertain; also: Lys*3 and GlnR*3 marked *3"}, "B3": {"name": "I-130 (peptide)", "peptide": "Ac-[αAllylPro]D[tBuAla][B5]D[Phe(3-COOH)][GlnR]AFL[PyrS2″][2F3MeF″][BztA″][(39N2spiroundecane)GlnR]A-NH2", "modifications": "reading uncertain; also: staple links not given here, printed as Ac-PL3-Asp-Npg-B5-Asp-3COOHF-GlnR-Ala-Phe-Leu-PyrS2-2F3MeF-BztA-[39N2spiroundecane]GlnR-Ala-NH2"}, "B4": {"name": "I-132 (peptide)", "peptide": "Ac-[αAllylPro]D[tBuAla][B5]D[Phe(3-COOH)][GlnR](29N2spiroundecane)AFL[PyrS2″][2F3MeF″][BztA″][GlnR]A-NH2", "modifications": "reading uncertain; also: staple links not given here, printed as Ac-PL3-Asp-Npg-B5-Asp-3COOHF-[29N2spiroundecane]GlnR-Ala-Phe-Leu-PyrS2-2F3MeF-BztA-GlnR-Ala-NH2"}, "B5": {"name": "I-58 (peptide)", "peptide": "Ac-[αAllylPro]D[tBuAla][B5(3)]D[Phe(3-COOH)]AAFK[PyrS2(3)][2F3MeF″][Bta][AsnR]A-NH2", "modifications": "bridge 10-14; not fully specified (bridges); printed as Ac-PL3-Asp-Npg-B5-Asp-3COOHF-Ala-Ala-Phe-Lys*3-PyrS2-2F3MeF-BztA-AsnR*3-Ala-NH2; reading uncertain"}, "B6": {"name": "I-59 (peptide)", "peptide": "Ac-[αAllylPro]D[tBuAla][B5(3)]D[Phe(3-COOH)]AAFK[PyrS2(3)][2F3MeF″][Bta][AsnR]A-NH2", "modifications": "bridge 10-14; not fully specified (bridges); printed as Ac-PL3-Asp-Npg-B5-Asp-3COOHF-Ala-Ala-Phe-Lys*3-PyrS2-2F3MeF-BztA-AsnR*3-Ala-NH2; reading uncertain"}, "B7": {"name": "I-95 (peptide)", "peptide": "Ac-[αAllylPro]D[tBuAla][B5(4)]D[Phe(3-COOH)][GlnR]AFL[PyrS2″][2F3MeF(3)][BztA][GlnR](4mampiperidine)A-NH2", "modifications": "staple 1-4 (inferred); not fully specified (bridges); printed as Ac-PL3-Asp-Npg-B5-Asp-3COOHF-GlnR-Ala-Phe-Leu-PyrS2-2F3MeF-BztA-[4mampiperidine]GlnR-Ala-NH2; reading uncertain"}, "B8": {"name": "I-109 (peptide)", "peptide": "Ac-[PL3]D[tBuAla][B5]D[Phe(3-COOH)][tBuAla]AFK[PyrS2(4)][2F3MeF][Bta][GlnR]L-NH2", "modifications": "staple 1-4; bridge 10-14; reading uncertain; also: PyrS2 tied into a staple, partner not placed, printed as Ac-PL3-Asp-Npg-B5-Asp-3COOHF-Npg-Ala-Phe-Lys*3-PyrS2-2F3MeF-BztA-GlnR*3-Leu-NH2"}, "B9": {"name": "I-110 (peptide)", "peptide": "Ac-[PL3]D[tBuAla][B5]D[Phe(3-COOH)][Cha]AFK[PyrS2(4)][2F3MeF][Bta][GlnR]L-NH2", "modifications": "staple 1-4; bridge 10-14; reading uncertain; also: PyrS2 tied into a staple, partner not placed, printed as Ac-PL3-Asp-Npg-B5-Asp-3COOHF-Cha-Ala-Phe-Lys*3-PyrS2-2F3MeF-BztA-GlnR*3-Leu-NH2"}, "B10": {"name": "I-111 (peptide)", "peptide": "Ac-[PL3]D[tBuAla][B5]D[Phe(3-COOH)][Cha]AFK[PyrS2(4)][2F3MeF][Bta][GlnR]L-NH2", "modifications": "staple 1-4; bridge 10-14; reading uncertain; also: PyrS2 tied into a staple, partner not placed, printed as Ac-PL3-Asp-Npg-B5-Asp-3COOHF-Cha-Ala-Phe-Lys*3-PyrS2-2F3MeF-BztA-GlnR*3-Leu-NH2"}, "B11": {"name": "I-114 (peptide)", "peptide": "Ac-[PL3]N[tBuAla][B5]D[TfeGA]AAFK[PyrS2(4)][2F3MeF][Bta][GlnR]A-NH2", "modifications": "staple 1-4; bridge 10-14; reading uncertain; also: PyrS2 tied into a staple, partner not placed"}, "B12": {"name": "I-49 (peptide)", "peptide": "Ac-[αAllylPro]D[tBuAla][B5(4)]D[Phe(3-COOH)]KAFL[PyrS2(6)][3Thi][Bta]K-NH2", "modifications": "not fully specified (residues 6, 7, bridges); printed as Ac-PL3-Asp-Npg-B5-Asp-3COOHF-[Biphen33COOH]-Lys-Ala-Phe-Leu-PyrS2-3Thi-BztA-Lys-NH2"}, "B13": {"name": "I-50 (peptide)", "peptide": "Ac-[αAllylPro]D[tBuAla][B5(4)]D[Phe(3-COOH)]K(isophthalate)AFL[PyrS2(6)][Phe(2-Cl)][Bta]K-NH2", "modifications": "not fully specified (residue 6, bridges); printed as Ac-PL3-Asp-Npg-B5-Asp-3COOHF-[isophthalate]-Lys-Ala-Phe-Leu-PyrS2-2ClF-BztA-Lys-NH2; also: isophthalate on Lys7 side chain is a staple, partner not given here"}, "B14": {"name": "I-53 (peptide)", "peptide": "Ac-[αAllylPro]D[tBuAla][B5(3)]D[Phe(3-COOH)]K(diphenate)AFL[PyrS2(3)][Phe(2-Cl)][Bta]K-NH2", "modifications": "not fully specified (residue 6, bridges); printed as Ac-PL3-Asp-Npg-B5-Asp-3COOHF-[diphenate]Lys-Ala-Phe-Leu-PyrS2-2ClF-BztA-Lys-NH2"}, "B15": {"name": "I-54 (peptide)", "peptide": "Ac-[αAllylPro]D[tBuAla][B5(3)]D[Phe(3-COOH)]K(Biphen33COOH)AFL[PyrS2(3)][Phe(2-Cl)][Bta]K-NH2", "modifications": "not fully specified (residue 6, bridges); printed as Ac-PL3-Asp-Npg-B5-Asp-3COOHF-[Biphen33COOH]Lys-Ala-Phe-Leu-PyrS2-2ClF-BztA-Lys-NH2; reading uncertain"}, "B16": {"name": "I-81 (peptide)", "peptide": "Ac-[PL3][hSer][tBuAla][B5]D[Phe(3-COOH)]AAFK[PyrS2″][3Thi][BztA][GlnR]A-NH2", "modifications": "staple 1-4 (inferred); bridge 10-14; not fully specified (residue 10, bridges); printed as Ac-PL3-Hse-Npg-B5-Asp-3COOHF-Ala-Ala-Phe-Lys*3-PyrS2-3Thi-BztA-GlnR*3-Ala-NH2; reading uncertain"}, "B17": {"name": "I-85 (peptide)", "peptide": "Ac-[PL3][hSer][tBuAla][B5]D[Phe(3-COOH)]SAFK[PyrS2″][3Thi][BztA][GlnR]A-NH2", "modifications": "staple 1-4 (inferred); bridge 10-14; not fully specified (residue 10, bridges); printed as Ac-PL3-Hse-Npg-B5-Asp-3COOHF-Ser-Ala-Phe-Lys*3-PyrS2-3Thi-BztA-GlnR*3-Ala-NH2; reading uncertain; also: Lys10 and GlnR14 marked *3"}, "B18": {"name": "I-86 (peptide)", "peptide": "Ac-[PL3]D[tBuAla][B5]N[Phe(3-COOH)]SAFK[PyrS2″][3Thi][BztA][GlnR]A-NH2", "modifications": "staple 1-4 (inferred); bridge 10-14; not fully specified (residue 10, bridges); printed as Ac-PL3-Asp-Npg-B5-Asn-3COOHF-Ser-Ala-Phe-Lys*3-PyrS2-3Thi-BztA-GlnR*3-Ala-NH2; reading uncertain; also: Lys10 and GlnR14 marked *3"}, "B19": {"name": "I-89 (peptide)", "peptide": "Ac-[PL3][hSer][tBuAla][B5]D[Phe(3-COOH)]QAFK[PyrS2″][3Thi][BztA][GlnR]A-NH2", "modifications": "staple 1-4 (inferred); bridge 10-14; not fully specified (residue 10, bridges); printed as Ac-PL3-Hse-Npg-B5-Asp-3COOHF-Gln-Ala-Phe-Lys*3-PyrS2-3Thi-BztA-GlnR*3-Ala-NH2; reading uncertain; also: Lys10 and GlnR14 marked *3"}, "B20": {"name": "I-91 (peptide)", "peptide": "Ac-[PL3]D[tBuAla][B5][hSer][Phe(3-COOH)]QAFK[PyrS2″][3Thi][BztA][GlnR]A-NH2", "modifications": "staple 1-4 (inferred); bridge 10-14; not fully specified (residue 10, bridges); printed as Ac-PL3-Asp-Npg-B5-Hse-3COOHF-Gln-Ala-Phe-Lys*3-PyrS2-3Thi-BztA-GlnR*3-Ala-NH2; reading uncertain; also: Lys10 and GlnR14 marked *3"}}, "note": "*1 amine or outer side, *2 acyl side, *3 side chain or, on linkers, in order; H or OH if unused. Bridges are numbered along the chain shown (N, C = ends). Primed or numbered codes have the meaning given here. [ ]: non-standard residue; d: D form. PyrS2(6) = (S)-3-amino-1-((pent-4-en-1-yloxy)carbonyl)pyrrolidine-3-carboxylic acid, stapled with another olefin-containing amino acid residue through the olefin group, O=C(OCCCC=[*:3])N1CC[C@@](N[*:1])(C(=O)[*:2])C1; B5(4) = 2-amino-2-(pent-4-en-1-yl)hept-6-enoic acid, stapled through each of its two olefin groups with other olefin-containing amino acid residues, O=C(C(CCCC=[*:3])(CCCC=[*:4])N[*:1])[*:2]; PyrS2″ = (S)-3-amino-1-((pent-4-en-1-yloxy)carbonyl)pyrrolidine-3-carboxylic acid (olefin stapling residue), C=CCCCOC(=O)N1CC[C@@](N[*:1])(C(=O)[*:2])C1; PyrS2(3) = (S)-3-amino-1-((pent-4-en-1-yloxy)carbonyl)pyrrolidine-3-carboxylic acid, olefin residue, C=CCCCOC(=O)N1CC[C@@](N[*:1])(C(=O)[*:2])C1; B5(3) = 2-amino-2-(pent-4-en-1-yl)hept-6-enoic acid, two olefin arms, C=CCCCC(CCCC=C)(N[*:1])C(=O)[*:2]; 2F3MeF(3) = aromatic amino acid residue, Cc1cccc(C[C@H](N[*:1])C(=O)[*:2])c1F; 2F3MeF″ = aromatic residue, Cc1cccc(C[C@H](N[*:1])C(=O)[*:2])c1F; Phe(3-COOH) = N[C@@H](Cc1cccc(C(=O)O)c1)C(=O)O; 2F3MeF = Cc1cccc(C[C@H](N[*:1])C(=O)[*:2])c1F; Phe(2-Cl) = N[C@@H](Cc1ccccc1Cl)C(=O)O; Bta = N[C@@H](Cc1csc2ccccc12)C(=O)O; αAllylPro = C=CC[C@@]1(C(=O)O)CCCN1; BztA = aromatic amino acid residue; 4mampiperidine = not defined here; tBuAla = CC(C)(C)C[C@H](N)C(=O)O; Biphen33COOH = not defined here; 3Thi = N[C@@H](Cc1ccsc1)C(=O)O; Cha = N[C@@H](CC1CCCCC1)C(=O)O; PyrS2(4) = not defined here; hSer = N[C@@H](CCO)C(=O)O; BztA″ = aromatic residue; TfeGA = not defined here; AsnR = not defined here; GlnR = not defined here; PL3 = not defined here; B5 = not defined here"}
{"biological_target": "beta-catenin (human)", "sequence (B6V8E6 146-665 limits assumed)": "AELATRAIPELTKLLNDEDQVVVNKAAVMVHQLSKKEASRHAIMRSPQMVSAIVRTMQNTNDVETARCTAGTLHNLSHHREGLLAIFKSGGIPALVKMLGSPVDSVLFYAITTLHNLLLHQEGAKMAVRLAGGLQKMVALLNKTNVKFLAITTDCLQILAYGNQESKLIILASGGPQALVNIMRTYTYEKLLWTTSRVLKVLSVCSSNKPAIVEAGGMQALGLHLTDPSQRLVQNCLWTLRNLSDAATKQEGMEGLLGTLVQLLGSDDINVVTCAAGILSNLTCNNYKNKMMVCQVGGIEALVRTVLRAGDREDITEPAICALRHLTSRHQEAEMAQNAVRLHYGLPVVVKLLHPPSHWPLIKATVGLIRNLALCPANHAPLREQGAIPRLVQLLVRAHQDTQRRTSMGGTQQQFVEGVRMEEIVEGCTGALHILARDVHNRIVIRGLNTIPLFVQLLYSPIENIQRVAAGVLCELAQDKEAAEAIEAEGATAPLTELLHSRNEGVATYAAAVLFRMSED", "assay": "fluorescence polarization; bin >50 nM", "units": {"IC50": "nM"}}
{"binder": "B1", "IC50": "< 200"}
{"binder": "B2", "IC50": "< 200"}
{"binder": "B3", "IC50": "< 200"}
{"binder": "B4", "IC50": "< 200"}
{"binder": "B5", "IC50": "< 200"}
{"binder": "B6", "IC50": "< 200"}
{"binder": "B7", "IC50": "< 200"}
{"binder": "B8", "IC50": "< 200"}
{"binder": "B9", "IC50": "< 200"}
{"binder": "B10", "IC50": "< 200"}
{"binder": "B11", "IC50": "< 200"}
{"binder": "B12", "IC50": "< 200"}
{"binder": "B13", "IC50": "< 200"}
{"binder": "B14", "IC50": "< 200"}
{"binder": "B15", "IC50": "< 200"}
{"binder": "B16", "IC50": "< 200"}
{"binder": "B17", "IC50": "< 200"}
{"binder": "B18", "IC50": "< 200"}
{"binder": "B19", "IC50": "< 200"}
{"biological_target": "beta-catenin (human)", "assay": "fluorescence polarization; bin >200 nM", "units": {"IC50": "nM"}}
{"binder": "B20", "IC50": "< 750"}
{"biological_target": "beta-catenin (human)", "assay": "cell-based or functional assay", "units": {"NanoBRET Abs IC50": "µM", "NanoBRET Abs IC50 (bin >3.0 uM)": "µM"}}
{"binder": "B1", "NanoBRET Abs IC50": "> 10"}
{"binder": "B2", "NanoBRET Abs IC50 (bin >3.0 uM)": "< 10"}
{"binder": "B3", "NanoBRET Abs IC50": "> 10"}
{"binder": "B4", "NanoBRET Abs IC50": "> 10"}
{"binder": "B5", "NanoBRET Abs IC50": "> 10"}
{"binder": "B6", "NanoBRET Abs IC50": "> 10"}
